Target: T1, mouse DEC205 receptor (mouse, UniProt Q60767 28-1723)
T1 construct: whole, on cells; also called DEC25 receptor; CD205
Assay: flow cytometry on DEC205-transfected A204 cells

B1: PyTh1 chimeric molecule (other)
heavy: EVKLLESGGGLVQPGGSLRLSCAASGFTFNDFYMNWIRQPPGQAPEWLGVIRNKGNGYTTEVNTSVKGRFTISRDNTQNILYLQMNSLRAEDTAIYYCARGGPYYYSGDDAPYWGQGVMVTVSSAKTTAPSVYPLAPVCGDTTGSSVTLGCLVKGYFPEPVTLTWNSGSLSSGVHTFPAVLQSDLYTLSSSVTVTSSTWPSQSITCNVAHPASSTKVDKKIEPRGPTIKPCPPCKCPAPNLLGGPSVFIFPPKIKDVLMISLSPIVTCVVVDVSEDDPDVQISWFVNNVEVHTAQTQTHREDYNSTLRVVSALPIQHQDWMSGKEFKCKVNNKDLPAPIERTISKPKGSVRAPQVYVLPPPEEEMTKKQVTLTCMVTDFMPEDIYVEWTNNGKTELNYKNTEPVLDSDGSYFMYSKLRVEKKNWVERNSYSCSVVHEGLHNHHTTKSFSQTPGKGGGGSGGGGSGGGGSVDEQLSKSVKDKVLLPCRYNSPHEDECEDRIYWQKHDKVVLSVIAGKLKVWPEYKNRTLYDNTTYSLIILGLVLSDRGTYSCVVQKKERGTYEVKHLALVKLSIKADFSTPNITESGNPSADTKRITCFASGGFPKPRFSWLENGRELPGINTTISQDPESELYTISSQLDFNTTRNHTIKCLIKYGDAHVSEDFTWEKPPEDPPDSK
light: DIQMTQSPSFLSTSLGNSITITCHASQNIKGWLAWYQQKSGNAPQLLIYKASSLQSGVPSRFSGSGSGTDYIFTISNLQPEDIATYYCQHYQSFPWTFGGGTKLELKRDAAPTVSIFPPSSEQLTSGGASVVCFLNNFYPKDINVKWKIDGSERQNGVLNSWTDQDSKDSTYSMSSTLTLTKDEYERHNSYTCEATHKTSTSPIVKSFNRNECGGGGSGGGGMGGGGSYNRNIVNRLLGDALNGKPEEK
notes: Mouse IgG2a scaffold with the variable domains of rat anti-mouse DEC205, made in SP20 myeloma cells; also called PhyTh1; PyTh1 vaccine
binding result: binds

Source: patent US20120195893A1 (UNITED STATES OF AMERICA AS REPRESENTED BY THE SECRETARY OF …, published 2012)
